Earlier results as cited in paper PMC5298935.

Key:
[1] = target: IRAK1 p144 peptide 140-149 (Homo sapiens) (UniProt P51617); test: NMR titration
[2] = target: IRAK1 p173 peptide 157-180 (Homo sapiens) (UniProt P51617); test: NMR titration
[3] = target: IRAK1 p131 peptide UD (Homo sapiens) (UniProt P51617); test: NMR
[4] = target: IRAK1 p144 peptide UD (Homo sapiens) (UniProt P51617); test: NMR
[5] = target: IRAK1 p173 peptide UD (Homo sapiens) (UniProt P51617); test: NMR
IRAK1 p173 peptide UD (Homo sapiens), sequence (P51617 whole entry, looked up, tested part not stated): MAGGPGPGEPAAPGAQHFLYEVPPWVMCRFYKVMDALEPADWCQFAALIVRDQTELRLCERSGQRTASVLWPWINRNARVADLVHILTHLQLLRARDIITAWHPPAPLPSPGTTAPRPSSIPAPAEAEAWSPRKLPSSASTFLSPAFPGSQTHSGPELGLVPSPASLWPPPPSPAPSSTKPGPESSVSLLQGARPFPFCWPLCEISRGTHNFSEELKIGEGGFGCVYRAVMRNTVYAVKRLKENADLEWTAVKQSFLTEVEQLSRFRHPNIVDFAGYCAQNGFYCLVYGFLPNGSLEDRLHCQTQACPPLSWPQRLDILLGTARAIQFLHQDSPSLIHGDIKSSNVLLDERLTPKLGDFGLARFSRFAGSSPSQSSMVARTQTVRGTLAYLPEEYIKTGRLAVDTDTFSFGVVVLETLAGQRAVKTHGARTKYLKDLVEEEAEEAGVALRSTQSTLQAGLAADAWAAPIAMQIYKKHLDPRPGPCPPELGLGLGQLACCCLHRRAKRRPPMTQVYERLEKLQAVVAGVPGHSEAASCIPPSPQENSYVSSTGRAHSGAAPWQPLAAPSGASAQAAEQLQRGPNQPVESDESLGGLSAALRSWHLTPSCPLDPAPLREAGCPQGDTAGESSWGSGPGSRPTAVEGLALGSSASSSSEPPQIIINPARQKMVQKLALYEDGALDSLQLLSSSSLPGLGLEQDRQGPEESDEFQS

Pin1 WW, sequence (Q13526 2-42): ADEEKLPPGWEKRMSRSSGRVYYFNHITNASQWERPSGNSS
Pin1 WW domain 1-50, sequence (Q13526 1-50): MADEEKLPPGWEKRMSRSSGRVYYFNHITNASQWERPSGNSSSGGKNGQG
IRAK1 p131 peptide UD (Homo sapiens), sequence (P51617 whole entry, looked up, tested part not stated): as the sequence (P51617 whole entry, looked up, tested part not stated) above
IRAK1 p144 peptide 140-149 (Homo sapiens), sequence (P51617 whole entry, looked up, tested part not stated): as above
IRAK1 p144 peptide UD (Homo sapiens), sequence (P51617 whole entry, looked up, tested part not stated): as above
IRAK1 p173 peptide 157-180 (Homo sapiens), sequence (P51617 157-180): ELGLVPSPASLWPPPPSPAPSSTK

Row | Kd [1] [µM] | Kd [2] [µM] | Kd [3] [µM] | Kd [4] [µM] | Kd [5] [µM] | Substance
1 | 120 | 260 |  |  |  | Pin1 WW domain 1-50 (from UniProt Q13526)
2 |  |  | 220 | 120 | 260 | Pin1 WW (from UniProt Q13526)
